{"source": "patent US20090215075A1", "about": "“THREE-DIMENSIONAL STRUCTURE OF A DNAB-FAMILY R[…] (G40P), USES THEREOF, AND METHODS FOR […]-BACTERIAL PATHOGENS BY […] HELICASES AND THE INTERACTIONS OF DNAB HELICASE WITH PRIMASE” (priority 2007, published 2009)", "key": {"B. subtilis DnaG primase [1]": {"molecular_target": "T1, B. subtilis DnaG primase (Bacillus subtilis, UniProt P05096 1-603, limits assumed)", "T1 construct": "Recombinant", "T1 sequence (looked up)": "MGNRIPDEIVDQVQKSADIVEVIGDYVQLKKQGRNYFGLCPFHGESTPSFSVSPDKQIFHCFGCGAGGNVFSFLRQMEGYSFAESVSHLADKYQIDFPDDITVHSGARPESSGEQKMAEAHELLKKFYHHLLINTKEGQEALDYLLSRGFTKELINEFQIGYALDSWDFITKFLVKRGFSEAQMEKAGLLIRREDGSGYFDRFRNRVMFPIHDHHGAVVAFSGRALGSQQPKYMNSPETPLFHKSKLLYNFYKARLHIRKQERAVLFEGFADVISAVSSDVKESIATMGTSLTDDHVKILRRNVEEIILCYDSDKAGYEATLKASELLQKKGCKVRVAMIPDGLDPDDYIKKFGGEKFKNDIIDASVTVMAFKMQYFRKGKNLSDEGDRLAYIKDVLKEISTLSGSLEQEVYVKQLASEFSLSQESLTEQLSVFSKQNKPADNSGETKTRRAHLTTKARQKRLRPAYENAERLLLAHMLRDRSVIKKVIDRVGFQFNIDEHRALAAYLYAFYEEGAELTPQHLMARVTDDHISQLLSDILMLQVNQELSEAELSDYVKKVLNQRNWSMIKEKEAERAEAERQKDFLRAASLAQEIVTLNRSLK", "test": "native gel shift assay, 10 ug G40P construct with 10 ug primase", "excerpt": "G40P/DnaB replicative helicases bind DnaG primase at the replication fork, this interaction is important for coordinating DNA unwinding by the helicase with RNA primer synthesis by the primase. We investigated the requirement of N-terminal domain of G40P in primase binding using the N-terminal deletions. […] We next examined if the isolated N-terminal domain of G40P can bind primase. The two constructs containing only the N-terminal α-hairpin and N-globe domains (N149 and N171) had no detectable primase binding in native gel shift assays (FIGS. 4d and 11). Both constructs behaved like monomers in gel filtration (data not shown).\n(§1) Interactions between G40P and B. subtilis DnaG primase were examined using a native gel shift assay. 10 ug of various G40P constructs were mixed with 10 ug primase in a buffer containing 25 mM TrisHCl pH 8.0, 50 mM NaCl, 5 mM MgCl₂, and 1 mM ATP-γ-S and incubated for 30 minutes on ice. The protein mixtures were then analyzed by 6% polyacrymamide native gel electrophoresis at 150 voltage for one hour at 4 degrees C. The gel was stained by Coomassie blue for detection."}, "B. subtilis DnaG primase [2]": {"molecular_target": "T2, B. subtilis DnaG primase (Bacillus subtilis, UniProt P05096)", "T2 construct": "GST (N); made in house; host or cells: E. coli", "test": "Native gel shift assay of primase binding", "settings": "native gel shift with B. subtilis DnaG primase", "experimental": "as §1, with “MgCl2,” for “MgCl₂,”"}, "[3]": {"system": "32P-labeled 60-base oligonucleotide annealed to circular M13mp18 ssDNA", "test": "Helicase assay", "assay_type": "biochemical", "settings": "for helicase activity (in words): compared with wt G40P", "experimental": "The substrate for the helicase assay was prepared by annealing a ^32P-labeled ssDNA (a 60-base oligonucleotide) to the circular M13mp18 ssDNA. This oligonucleotide has 35 nucleotides annealed to the M13 DNA, leaving a 25-nucleotide 5′ overhang. The substrate DNA was incubated with various amounts of different G40P mutant proteins in the presence or absence of primase at 37 degrees C. for 30 minutes in a buffer containing 20 mM Tris-HCl (pH 7.5), 5 mM ATP, 10 mM MgCl2, 1 mM DTT, and 50 mM NaCl. The reaction was terminated by adding a stop solution containing 100 mM EDTA, 0.5% SDS, and 50% glycerol. Samples were analyzed on a 12% native polyacrylamide gel in 1 M Tris/borate/EDTA running buffer. The unwinding of the substrate DNA was detected by autoradiography."}}, "data": [{"molecule": "G40P N-terminal fragment N149 (other, Contains only the N-globe and α-hairpin domains; Limits inferred from the name; Behaved like a monomer in gel filtration) MNPEEKTVMLYNEYAEQAVLGSILTEPELIKECPLTPEHFSPGKHFNIYFTMQDLDRKGQSVDFTSIAARVGEKLPQLGGFGYLTELAASVASTTTFKQHCQTVSEYFQKRKAISIAQQIIENVNESDDGPVKPIQEAVSELMEIEASG", "values": [{"measurement": "binding result", "setting": "B. subtilis DnaG primase [1]", "result": "no binding"}, {"measurement": "primase binding", "setting": "B. subtilis DnaG primase [2]", "result": "no detectable primase binding"}]}, {"molecule": "G40P N-terminal deletion mutant ΔN112 (enzyme, Limits inferred from the name, by analogy with ΔN129 = residues 130-442; Forms hexamers in gel filtration) AISIAQQIIENVNESDDGPVKPIQEAVSELMEIEASGTDDDDGSIDEALVTVYEEIESADGNITGVPSGFTELDRMTYGYKRRNFVLIAARPSMGKTAFALKQAKNMSDNDDVVNLHSLEMGKKENIKRLIVTAGSINAQKIKAARRDFASEDWGKLSMAIGEISNSNINIFDKAGQSVNYIWSKTRQTKRKNPGKRVIVMIDYLQLLEPAKANDSRTNQISQISRDLKKMARELDVVVIALSQLSRQVEQRQDKRPMLSDLRESGQLEQDADIIEFLYRDDYYDKESESKNIVEVIIAKHRDGPVGTVSLAFIKEYGNFVNLERRFDDR", "values": [{"measurement": "binding result", "setting": "B. subtilis DnaG primase [1]", "result": "no binding"}, {"measurement": "helicase activity (in words)", "setting": "[3]", "result": "no detectable helicase activity"}, {"measurement": "primase binding", "setting": "B. subtilis DnaG primase [2]", "result": "devoid of primase binding"}]}, {"molecule": "B. subtilis DnaG primase (protein) MGNRIPDEIVDQVQKSADIVEVIGDYVQLKKQGRNYFGLCPFHGESTPSFSVSPDKQIFHCFGCGAGGNVFSFLRQMEGYSFAESVSHLADKYQIDFPDDITVHSGARPESSGEQKMAEAHELLKKFYHHLLINTKEGQEALDYLLSRGFTKELINEFQIGYALDSWDFITKFLVKRGFSEAQMEKAGLLIRREDGSGYFDRFRNRVMFPIHDHHGAVVAFSGRALGSQQPKYMNSPETPLFHKSKLLYNFYKARLHIRKQERAVLFEGFADVISAVSSDVKESIATMGTSLTDDHVKILRRNVEEIILCYDSDKAGYEATLKASELLQKKGCKVRVAMIPDGLDPDDYIKKFGGEKFKNDIIDASVTVMAFKMQYFRKGKNLSDEGDRLAYIKDVLKEISTLSGSLEQEVYVKQLASEFSLSQESLTEQLSVFSKQNKPADNSGETKTRRAHLTTKARQKRLRPAYENAERLLLAHMLRDRSVIKKVIDRVGFQFNIDEHRALAAYLYAFYEEGAELTPQHLMARVTDDHISQLLSDILMLQVNQELSEAELSDYVKKVLNQRNWSMIKEKEAERAEAERQKDFLRAASLAQEIVTLNRSLK", "values": [{"measurement": "primase-mediated stimulation of the ATPase and helicase activity of G40P", "setting": "G40P point mutant mt4", "result": "mt4 displayed much reduced primase-mediated stimulation of the ATPase and helicase activity of G40P"}]}, {"molecule": "G40P N-terminal deletion mutant ΔN129 (enzyme, Forms hexamers in gel filtration; also called G40P-Δ129; G40P truncated monomer) GPVKPIQEAVSELMEIEASGTDDDDGSIDEALVTVYEEIESADGNITGVPSGFTELDRMTYGYKRRNFVLIAARPSMGKTAFALKQAKNMSDNDDVVNLHSLEMGKKENIKRLIVTAGSINAQKIKAARRDFASEDWGKLSMAIGEISNSNINIFDKAGQSVNYIWSKTRQTKRKNPGKRVIVMIDYLQLLEPAKANDSRTNQISQISRDLKKMARELDVVVIALSQLSRQVEQRQDKRPMLSDLRESGQLEQDADIIEFLYRDDYYDKESESKNIVEVIIAKHRDGPVGTVSLAFIKEYGNFVNLERRFDDR", "values": [{"measurement": "binding result", "setting": "B. subtilis DnaG primase [1]", "result": "no binding"}, {"measurement": "helicase activity (in words)", "setting": "[3]", "result": "no detectable helicase activity"}, {"measurement": "primase binding", "setting": "B. subtilis DnaG primase [2]", "result": "devoid of primase binding"}]}, {"molecule": "G40P N-terminal deletion mutant ΔN108 (enzyme, Limits inferred from the name, by analogy with ΔN129 = residues 130-442; Forms hexamers in gel filtration) QKRKAISIAQQIIENVNESDDGPVKPIQEAVSELMEIEASGTDDDDGSIDEALVTVYEEIESADGNITGVPSGFTELDRMTYGYKRRNFVLIAARPSMGKTAFALKQAKNMSDNDDVVNLHSLEMGKKENIKRLIVTAGSINAQKIKAARRDFASEDWGKLSMAIGEISNSNINIFDKAGQSVNYIWSKTRQTKRKNPGKRVIVMIDYLQLLEPAKANDSRTNQISQISRDLKKMARELDVVVIALSQLSRQVEQRQDKRPMLSDLRESGQLEQDADIIEFLYRDDYYDKESESKNIVEVIIAKHRDGPVGTVSLAFIKEYGNFVNLERRFDDR", "values": [{"measurement": "binding result", "setting": "B. subtilis DnaG primase [1]", "result": "no binding"}, {"measurement": "helicase activity (in words)", "setting": "[3]", "result": "no detectable helicase activity"}, {"measurement": "primase binding", "setting": "B. subtilis DnaG primase [2]", "result": "devoid of primase binding"}]}, {"molecule": "G40P N-terminal fragment N171 (other, Contains only the N-globe and α-hairpin domains; Limits inferred from the name; Behaved like a monomer in gel filtration) MNPEEKTVMLYNEYAEQAVLGSILTEPELIKECPLTPEHFSPGKHFNIYFTMQDLDRKGQSVDFTSIAARVGEKLPQLGGFGYLTELAASVASTTTFKQHCQTVSEYFQKRKAISIAQQIIENVNESDDGPVKPIQEAVSELMEIEASGTDDDDGSIDEALVTVYEEIESA", "values": [{"measurement": "binding result", "setting": "B. subtilis DnaG primase [1]", "result": "no binding"}, {"measurement": "primase binding", "setting": "B. subtilis DnaG primase [2]", "result": "no detectable primase binding"}]}, {"molecule": "G40P N-terminal deletion mutant ΔN92 (enzyme, Lacks the N-globe and keeps an intact α-hairpin; Forms hexamers in gel filtration) STTTFKQHCQTVSEYFQKRKAISIAQQIIENVNESDDGPVKPIQEAVSELMEIEASGTDDDDGSIDEALVTVYEEIESADGNITGVPSGFTELDRMTYGYKRRNFVLIAARPSMGKTAFALKQAKNMSDNDDVVNLHSLEMGKKENIKRLIVTAGSINAQKIKAARRDFASEDWGKLSMAIGEISNSNINIFDKAGQSVNYIWSKTRQTKRKNPGKRVIVMIDYLQLLEPAKANDSRTNQISQISRDLKKMARELDVVVIALSQLSRQVEQRQDKRPMLSDLRESGQLEQDADIIEFLYRDDYYDKESESKNIVEVIIAKHRDGPVGTVSLAFIKEYGNFVNLERRFDDR", "values": [{"measurement": "binding result", "setting": "B. subtilis DnaG primase [1]", "result": "no binding"}, {"measurement": "helicase activity retained, of the wt activity", "setting": "[3]; absence of primase, relative to full-length (wt) G40P", "result": "~66", "unit": "%"}, {"measurement": "primase binding", "setting": "B. subtilis DnaG primase [2]", "result": "devoid of primase binding"}]}]}
